In the supplement of paper PMC10126150:
± gives the standard deviation of the averaged measurements.

system: ATP; assay: switch fluorescence ratio, 500 uM ATP over buffer (Cy3 cluster intensity, sum of 5 cycles each) (fold (ratio)); higher = stronger signal-on switching upon ATP binding; sequences stand for … in TCGTCGGCAGCGTCAGATGTGTATAAGAGACAGTTTTTTTTTTTTTTTTTTTTTTTTT…TC; conditions: aptamer strand: ATP DNA aptamer (quencher-CACCTGGGGGAGTATTGCGGAGGAAGG + anchor), 100 nM annealed; ATP concentration: 500 uM
Outline: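 Clusters carrying Cy3-labelled switching strands on a modified Illumina MiSeq flow-cell were annealed to 100 nM quencher-labelled ATP aptamer and imaged in selection buffer. They were imaged again after 15 min with 500 uM ATP at 22 °C, over five buffer/ATP cycles with NaOH stripping and re-annealing in between. For each cluster, the fluorescence ratio is the summed Cy3 intensity of the target cycles divided by that of the buffer cycles, averaged per switch-domain sequence. Clusters outside 100-1000 RFU were left out.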
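Further: ATP exposure 15 min at 22 °C before imaging.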

Sequence | switch fluorescence ratio
TTGGTGTGTC | 1.04 ± 0.07
TTGGTGTTGT | 0.989 ± 0.027
TTGGTGTTTT | 1.02 ± 0.03
TTGGTTACTG | 1.03 ± 0.07
TTGGTTATGC | 0.998 ± 0.045
TTGGTTATGT | 0.969 ± 0.017
TTGGTTGAAC | 0.946 ± 0.032
TTGGTTGGAG | 0.996 ± 0.021
TTGGTTGTAT | 1 ± 0.011
TTGGTTGTGG | 0.972 ± 0.018
TTGGTTGTGT | 1.01 ± 0.015
TTGGTTTCTT | 1.01 ± 0.023
TTGGTTTGCG | 0.962 ± 0.017
TTGGTTTGGG | 0.98 ± 0.022
TTGGTTTGTG | 1.01 ± 0.035
TTGGTTTTAG | 1 ± 0.033
TTGGTTTTGA | 0.988 ± 0.042
TTGTAAAA | 0.95579 ± 0.00088
TTGTAAGGTC | 1 ± 0.031
TTGTAAGTGG | 0.97 ± 0.0078
TTGTAATAGT | 1.026 ± 0.00026
TTGTACAA | 0.993 ± 0.017
TTGTAGAGGG | 1.01 ± 0.029
TTGTATAATT | 0.969 ± 0.038
TTGTATAGGG | 1 ± 0.025
TTGTATCAGG | 1 ± 0.02

Sequence | switch fluorescence ratio
TTGTATCTTC | 0.993 ± 0.041
TTGTATGAAG | 0.951 ± 0.061
TTGTATGGTT | 1.02 ± 0.019
TTGTATGTTT | 0.98 ± 0.023
TTGTATTAAT | 0.975 ± 0.031
TTGTATTATG | 1.008 ± 0.0095
TTGTATTT | 0.979 ± 0.022
TTGTCACGG | 0.986 ± 0.035
TTGTCCAAAT | 0.986 ± 0.0099
TTGTCCAGGA | 0.977 ± 0.048
TTGTCCCCGG | 1.58 ± 0.68
TTGTCGTATC | 1 ± 0.019
TTGTGAGGGC | 1.02 ± 0.041
TTGTGAGGGT | 0.981 ± 0.033
TTGTGAGGTT | 1.06 ± 0.088
TTGTGATAGT | 1.0025 ± 0.00064
TTGTGATGGC | 1.03 ± 0.11
TTGTGATGTC | 1.031 ± 0.0048
TTGTGCGCGC | 1.022 ± 0.0018
TTGTGGAGCT | 0.999 ± 0.016
TTGTGGATGG | 0.978 ± 0.039
TTGTGGCAAG | 1 ± 0.018
TTGTGGCCGT | 1.039 ± 0.0035
TTGTGGCGCC | 0.958 ± 0.021
TTGTGGGATA | 1.01 ± 0.011
TTGTGGGCAG | 1.03 ± 0.032

Sequence | switch fluorescence ratio
TTGTGGGTCG | 0.984 ± 0.031
TTGTGGTTGC | 1.02 ± 0.013
TTGTGGTTGT | 0.966 ± 0.016
TTGTGTAATT | 1.06 ± 0.05
TTGTGTACCG | 0.96 ± 0.048
TTGTGTATCA | 0.993 ± 0.035
TTGTGTTACG | 0.996 ± 0.047
TTGTGTTGG | 1.03 ± 0.019
TTGTTAAAGT | 1 ± 0.038
TTGTTAAATG | 1.02 ± 0.056
TTGTTAATTT | 1.02 ± 0.05
TTGTTACAGA | 1.004 ± 0.0078
TTGTTACTGG | 1.01 ± 0.03
TTGTTAGGCT | 1.03 ± 0.041
TTGTTAGGTG | 1.132 ± 0.0016
TTGTTAGTAT | 0.996 ± 0.021
TTGTTAGTCT | 0.982 ± 0.024
TTGTTAGTGG | 1.01 ± 0.031
TTGTTATAGG | 1.06 ± 0.14
TTGTTCCTTT | 0.9847 ± 0.0076
TTGTTCGTTT | 0.986 ± 0.025
TTGTTGAATA | 1.003 ± 0.0016
TTGTTGGGCC | 1.01 ± 0.036
TTGTTGGTGG | 0.9856 ± 0.0066
TTGTTGTGAC | 0.994 ± 0.028
TTGTTGTGCT | 0.961 ± 0.033

Sequence | switch fluorescence ratio
TTGTTGTTCG | 1.01 ± 0.034
TTGTTTACCG | 0.9557 ± 0.0045
TTGTTTAGGA | 0.9763 ± 0.0012
TTGTTTCAAG | 1.01 ± 0.029
TTGTTTCTTG | 0.981 ± 0.049
TTGTTTGGGT | 0.984 ± 0.014
TTGTTTTCCA | 0.987 ± 0.018
TTGTTTTGCT | 0.999 ± 0.073
TTGTTTTTCG | 0.978 ± 0.027
TTGTTTTTTG | 1.01 ± 0.034
TTTAAAAAAG | 1.02 ± 0.028
TTTAAAAGAT | 1.01 ± 0.035
TTTAAAAGGT | 1 ± 0.011
TTTAAAATGG | 0.9998 ± 0.0073
TTTAAACCGG | 1.02 ± 0.016
TTTAAAGAAT | 1.04 ± 0.079
TTTAAAGCCC | 1.01 ± 0.043
TTTAAAGGAT | 1 ± 0.024
TTTAAAGGCA | 0.991 ± 0.011
TTTAAAGTGA | 1 ± 0.032
TTTAAATCGG | 0.979 ± 0.04
TTTAACAGTT | 1.01 ± 0.051
TTTAACCAAT | 1.02 ± 0.064
TTTAACCTTT | 1.05 ± 0.051
TTTAACGTTG | 0.989 ± 0.04
TTTAACTAGA | 1.041 ± 0.0061

Sequence | switch fluorescence ratio
TTTAACTGCG | 1.02 ± 0.036
TTTAACTTAT | 1.03 ± 0.02
TTTAACTTTG | 1.011 ± 0.0084
TTTAAGAGAA | 1.001 ± 0.0059
TTTAAGAGCG | 1.02 ± 0.013
TTTAAGAGGT | 0.982 ± 0.023
TTTAAGAGTA | 1 ± 0.067
TTTAAGCAGA | 1.04 ± 0.041
TTTAAGCCCC | 0.9854 ± 0.0082
TTTAAGGCGT | 1.03 ± 0.016
TTTAAGGGCG | 0.981 ± 0.045
TTTAAGGGGG | 1.15 ± 0.28
TTTAAGTAAG | 1.02 ± 0.012
TTTAAGTCTA | 0.992 ± 0.039
TTTAAGTGAT | 1.01 ± 0.057
TTTAAGTGTC | 1.09 ± 0.11
TTTAAGTTTT | 1 ± 0.022
TTTAATAGCT | 1 ± 0.04
TTTAATATTT | 1.04 ± 0.077
TTTAATCCGT | 1.01 ± 0.055
TTTAATCTGG | 0.968 ± 0.021
TTTAATGA | 0.976 ± 0.011
TTTAATGGAA | 0.988 ± 0.012
TTTAATGTAT | 1.19 ± 0.3
TTTAATGTTG | 1.014 ± 0.0082
TTTAATTTGG | 0.9816 ± 0.0073

Sequence | switch fluorescence ratio
TTTAATTTTC | 1.05 ± 0.14
TTTACAACGC | 1.05 ± 0.012
TTTACAGGGA | 1.027 ± 0.0086
TTTACATTTT | 0.998 ± 0.044
TTTACCCCGC | 1.63 ± 0.58
TTTACGATGC | 1.05 ± 0.0062
TTTACGGAGA | 1.03 ± 0.041
TTTACGGCTA | 1.06 ± 0.014
TTTACGGGAT | 1.06 ± 0.036
TTTACGGTCA | 1.04 ± 0.039
TTTACTAGGT | 0.959 ± 0.026
TTTACTCGGA | 1.033 ± 0.0099
TTTACTTA | 1.0157 ± 0.00064
TTTACTTACG | 1.22 ± 0.18
TTTACTTATT | 1 ± 0.019
TTTACTTGGG | 0.9767 ± 0.0077
TTTACTTTCC | 1.56 ± 0.16
TTTAGACGTT | 1.02 ± 0.016
TTTAGAGAGA | 0.975 ± 0.015
TTTAGATGTG | 1 ± 0.014
TTTAGCAGGT | 1.05 ± 0.014
TTTAGCCATT | 0.992 ± 0.012
TTTAGCTTGT | 0.972 ± 0.011
TTTAGGAAGT | 1.0072 ± 0.00083
TTTAGGCATT | 1.03 ± 0.031
TTTAGGCCGT | 1.05 ± 0.066

Sequence | switch fluorescence ratio
TTTAGGGGCG | 1.03 ± 0.1
TTTAGGGGCT | 0.9764 ± 0.0076
TTTAGGGTGT | 1.05 ± 0.071
TTTAGGGTTC | 1.04 ± 0.1
TTTAGGGTTG | 0.988 ± 0.022
TTTAGGTAAC | 0.9922 ± 0.0079
TTTAGGTGTA | 0.985 ± 0.02
TTTAGGTGTT | 1.05 ± 0.074
TTTAGGTTGG | 0.994 ± 0.031
TTTAGTTGAT | 1.01 ± 0.031
TTTAGTTTTG | 1.017 ± 0.005
TTTATAAATT | 0.972 ± 0.032
TTTATAACCA | 1.05 ± 0.024
TTTATACAA | 1.018 ± 0.0097
TTTATACCAG | 1.004 ± 0.0066
TTTATAGCT | 1.02 ± 0.027
TTTATAGGCT | 1.01 ± 0.047
TTTATATGTC | 1.12 ± 0.23
TTTATATTAT | 0.993 ± 0.043
TTTATATTTC | 0.99 ± 0.046
TTTATCACCT | 1.14 ± 0.021
TTTATCACGT | 0.975 ± 0.0077
TTTATCATGC | 0.987 ± 0.019
TTTATCCAAT | 0.984 ± 0.037
TTTATCCGAC | 1.15 ± 0.027
TTTATCCGAG | 1.04 ± 0.042

Sequence | switch fluorescence ratio
TTTATCCGGG | 0.99 ± 0.05
TTTATCGCCG | 0.974 ± 0.022
TTTATCGGCT | 1.06 ± 0.078
TTTATCGGGG | 0.988 ± 0.011
TTTATCGGTG | 0.995 ± 0.035
TTTATCTATT | 1 ± 0.012
TTTATCTTCC | 2.41 ± 0.065
TTTATCTTCG | 1.04 ± 0.017
TTTATGAAGA | 0.985 ± 0.027
TTTATGAATT | 1.03 ± 0.019
TTTATGACAT | 0.971 ± 0.029
TTTATGAGCA | 0.998 ± 0.035
TTTATGAGGT | 0.999 ± 0.02
TTTATGCGGG | 1.02 ± 0.048
TTTATGCTTG | 0.974 ± 0.044
TTTATGGAGA | 0.998 ± 0.015
TTTATGGCAT | 1.02 ± 0.027
TTTATGGCCC | 1.01 ± 0.064
TTTATGGGGT | 1.01 ± 0.028
